# Data published in the Human Domainome abundance scans (Beltran et al. 2025).
# ± gives the uncertainty stated by the source.
# B1: Receptor-interacting serine/threonine-protein kinase 2, residues 438 to 518; numbered along this chain, O43353 (parent)
# chain: QWIQSKREDIVNQMTEACLNQSLDALLSRDLIMKEDYELVSTKPTRTSKVRQLLDTTDIQGEEFAKVIVQKLKDNKQMGLQ
# Variants of: B1
# Assay: abundance fitness (aPCA) (normalised: wild type 0, dead -1); higher = more abundant; growth selection in yeast, the domain comes from the species named
# Conditions: Homo sapiens
row,Variant,abundance fitness
1,QWIQSKREDIVNQMTEACLNQSLDALLSRDLIMKEDYELVSTKPTRTSRVRQLLDTTDIQGEEFAKVIVQKLKDNKQMGLQ [K49R],-0.283 ± 0.14
2,QWIQSKREDIVNQMTEACLNQSLDALLSRDLIMKEDYELVITKPTRTSKVRQLLDTTDIQGEEFAKVIVQKLKDNKQMGLQ [S41I],0.09 ± 0.11
3,QWIQSKREDIVNQMTEACLNQSLDALLSRDLIMKEDYELVSTKPRRTSKVRQLLDTTDIQGEEFAKVIVQKLKDNKQMGLQ [T45R],-0.879 ± 0.07
4,QWIQSKREDIVNQMTEACLNQSLDALLSRDNIMKEDYELVSTKPTRTSKVRQLLDTTDIQGEEFAKVIVQKLKDNKQMGLQ [L31N],-0.782 ± 0.35
5,QWPQSKREDIVNQMTEACLNQSLDALLSRDLIMKEDYELVSTKPTRTSKVRQLLDTTDIQGEEFAKVIVQKLKDNKQMGLQ [I3P],-0.194 ± 0.24
6,QWIQSKREDIVNQMTEACLNQSLDALLSRDLIMKEDYELVSTKPTRTSKVRQLLDTTDIQGEEFAKVIVQKLKDAKQMGLQ [N75A],-0.281 ± 0.071
7,QWIQSKREDIVNQMTEACLNQSLDALLSRDLIMKEDYELVSTKPTRTSKVRQLLDTTDIQGEEFAKVIVQKLKDFKQMGLQ [N75F],-0.431 ± 0.16
8,QWIQSKREDIVNQMTEACLNQSLDALLSRDLIMKEDYELVSTKPTRTSKVRQLLDTTDIQGEEFAKVIVQKLKDQKQMGLQ [N75Q],-0.046 ± 0.1
9,QWIQSKREDIVNQMTEACLNQSLDALLSRDLIMKEDYELVSTKPTRTSKVRQLLDTTDIQGEEFAKVIVQKGKDNKQMGLQ [L72G],-0.528 ± 0.07
10,QWIQSKREDIVNQMTEACLNQSLDALLSRDLIMKEDYELVSTKPTRTSKVRQLLDTTDIQGEEFAKVIVQKMKDNKQMGLQ [L72M],0.121 ± 0.14
11,QWIQSKREDIVNQMTEACLNQSLDALLSRDLIMKEDYELVSTKPTRTSKVRQLLDTTDIQGEEFAKVIVQKYKDNKQMGLQ [L72Y],-0.695 ± 0.21
12,QWIQSKREDIVNQMTEACLNQSLDALLSRDLIMKEDYELVSTKPTRTSKVRQLLDTTDIQGEEFARVIVQKLKDNKQMGLQ [K66R],-0.166 ± 0.048
13,QWIQSKREDIVNQMTEACLNQSLDALLSRDLIMKEDYSLVSTKPTRTSKVRQLLDTTDIQGEEFAKVIVQKLKDNKQMGLQ [E38S],-0.375 ± 0.07
14,QWIQSKREDIVNQMTEACLNQSLDALLSRDLIMKEDYELVSTKPTRTSKVRQLLDTTDIQGEEFAKVIVQKLKDNRQMGLQ [K76R],-0.192 ± 0.065
15,QWIQSKREDIVNQMTEACLNQSLDALLSRDLIMKEDYELVSTKPTRTSKVRQLLDTTDIQGEEFAKVIVNKLKDNKQMGLQ [Q70N],-0.81 ± 0.42
16,QWIQSKREDIVNQMTEACLNQSLDALLSRDLIMKEDYELVSTKPTRTSKVRQLLDTTDIQGEEFAKLIVQKLKDNKQMGLQ [V67L],-0.51 ± 0.06
17,QWIQSKREDIVNQMTEACLNQSLDALLSRDLIMKEDYELVSTKPTRTSKVRQLLDTTDIQGEEFAKCIVQKLKDNKQMGLQ [V67C],-0.33 ± 0.14

row,Variant,abundance fitness
1,QWIQSKREDIVNQMTEACLNQSLDALLSRDLIMKEDYELVSTKPTRTSKVRQLLDTTDIQGEEFAKQIVQKLKDNKQMGLQ [V67Q],-0.568 ± 0.12
2,QWIQSKREDIVNQMTEACLNQSLDALLSRDLIMKEDYELVSTKPTRTSKVRQLLDTTDIQGEYFAKVIVQKLKDNKQMGLQ [E63Y],-0.839 ± 0.26
3,QWIQSKREDIVNQMTEACLNQSLDALLSRDLIMKEDYELVSTKPTRTSKVRQLLDTTDIQYEEFAKVIVQKLKDNKQMGLQ [G61Y],-0.279 ± 0.14
4,QWIQSKREDIVNQMTEACLNQSLDALLSRDLIMKEDYELVSTKPTRGSKVRQLLDTTDIQGEEFAKVIVQKLKDNKQMGLQ [T47G],-0.185 ± 0.064
5,QWIQSKREDIVNQMTDACLNQSLDALLSRDLIMKEDYELVSTKPTRTSKVRQLLDTTDIQGEEFAKVIVQKLKDNKQMGLQ [E16D],0.014 ± 0.11
6,QWIQSKLEDIVNQMTEACLNQSLDALLSRDLIMKEDYELVSTKPTRTSKVRQLLDTTDIQGEEFAKVIVQKLKDNKQMGLQ [R7L],-0.545 ± 0.085
7,QWIQSKREDIVNQMTEACLNQSLDALLSRDLIMKEDYELVSTKPTRTSKVRQLLDTTDIQGEEFAKVIVQFLKDNKQMGLQ [K71F],-0.249 ± 0.15
8,QWIQSKREDIVNQMTEACLNQSLDALLSRDLIMKEDYELVSTKPTRTSKVRQLLDTTDIQGEEFAKVIVQDLKDNKQMGLQ [K71D],-0.381 ± 0.12
9,QWIQSKREDIVNQMTEACLNQDLDALLSRDLIMKEDYELVSTKPTRTSKVRQLLDTTDIQGEEFAKVIVQKLKDNKQMGLQ [S22D],-0.386 ± 0.15
10,QWIQSKREDIVNQMTEACLNQSLDALLSRDLIMKEDYELVSTKPTRTSKVRQLLDTTPIQGEEFAKVIVQKLKDNKQMGLQ [D58P],0.172 ± 0.064
11,QWIQSKREDIVNQMTEACLGQSLDALLSRDLIMKEDYELVSTKPTRTSKVRQLLDTTDIQGEEFAKVIVQKLKDNKQMGLQ [N20G],-0.159 ± 0.072
12,QWIQSKREDIVNQMTEACLNQSLDALLSRDLIMKEDYELVSTKPTRTSKVRQLHDTTDIQGEEFAKVIVQKLKDNKQMGLQ [L54H],-0.542 ± 0.14
13,QWIQSKREDIVNQMTEACLNQSLDALLSRDLIMKEDYELVSTKPTRTSKVRQLFDTTDIQGEEFAKVIVQKLKDNKQMGLQ [L54F],-0.936 ± 0.31
14,QWIQSKREDIVNQMGEACLNQSLDALLSRDLIMKEDYELVSTKPTRTSKVRQLLDTTDIQGEEFAKVIVQKLKDNKQMGLQ [T15G],-0.566 ± 0.071
15,QWIQSKREDIVNQMTEACLNQSLDALLSRDLIMKEDYELVSTKPTRTSKVRQLLDTTDIQGAEFAKVIVQKLKDNKQMGLQ [E62A],-0.555 ± 0.067
16,QWIQSKREDIVNQMTEACLNQSLDALLSRDLIIKEDYELVSTKPTRTSKVRQLLDTTDIQGEEFAKVIVQKLKDNKQMGLQ [M33I],-0.075 ± 0.12
17,QWIQSKREDIVNQMTEACLNQSLDALLSRDLIMKEDYELVSTKPTRTSKVRQLLDTTDIQGEEFAKVIVQKLGDNKQMGLQ [K73G],-0.132 ± 0.056
